Experiment [1] concerns the target recombinant RBD protein of wild-type SARS-CoV-2 (ELISA antigen) (SARS-CoV-2 wild-type, UniProt P0DTC2).
Experiment [2] concerns the target recombinant wild-type SARS-CoV-2 S trimer (ELISA antigen) (SARS-CoV-2 wild-type, UniProt P0DTC2).

This note sets out measurements from paper PMC10063446 (Nature Immunology, 2023).

B1: P5S-3D10 (antibody, V domains shown)
VH: EVQLVESGGDLVQPGRSLRLSCAASGFTFSLFAMSWVRQAPGKGLEWVSTISGRGDSSYYADSVKGRFTISRDNSKNTLYLQITGLRAEDTAVYYCAKGVDGDYGNWFDPWGQGALVTVSS
VL: SYVLTQPPSVSVAPGKTARITCGGNNIGSKSVHWYQQKPGQAPVLVIYYDSDRPSGIPERISGSNSGNTATLTISRVEAGDEADYYCQVWHSSSVIFGGGTKLTVL
Take B1: the binding result in experiment [1] and in experiment [2] was “binds” in each case.

B2: P5S-1D8 (antibody, V domains shown)
VH: EVQLVESGGGLVQPGRSLRLSCAASGFTFDDYAMYWVRQAPGKGLEWVSGVSWNSGTIGYADSVKGRFIISRDNAKNSLYLQMRSLRTEDTALYYCAKDSATRYYSGSDYTSYGMDVWGQGTTVTVSS
VL: QSALTQPASVSGSPGQSITVSCTGTSSDIGDYNYVSWYQQHPGKAPKLMIYDVSNRPSGASNRFSGSKSGNTASLTISGLQAEDEADYYCSSYTSSSTVVFGGGTKVTVL
B2: the binding result in experiment [1] and in experiment [2] was “binds” each time.

B3: P2-1G1 (antibody, V domains shown)
VH: EVQLVESGGGLVQPGRSLRLSCAASGFTFDDYAMHWVRQAPGKGLEWVSGMSWNSGTIGYADSVKGRFTISRDNAKNSLYLQMNSLRPEDTALYYCAKDIGGAEMATRNYGMDVWGQGTTVTVSS
VL: QSALTQPASVSGSPGQSITISCTGASSDVGGYNYVSWYQQHPGKAPKLMIYDVSERPSGVSNRFSGSKSGNTASLTISGLQAEDEADYYCSSYTSSSTLVFGGGTKLTVL
As to B3, the binding result in experiment [1] and in experiment [2] was “binds” throughout.

B4: P195-2B8 (antibody, V domains shown)
VH: EVQLVESGGGLIHPGGSLRLSCAASGFTVSSNYMTWVRQAPGKGLEWVSVIYSGGSTFYADSVKGRFTISRDNSKNTLYLQMNSLRAQDTAVYYCARDLSVYGMDVWGQGTTVTVSS
VL: DIQLTQSPSFLSASVGDRVTITCRASQGISSYLAWYQQKPGKAPKLLIYAASTLQSGVPSRFSGSGSGTEFTLTISSLQPEDFATYYCQQLNSDSFTFGPGTKVDIK
B4: the binding result in experiment [1] and in experiment [2] was “binds” each time.

B5: P2-1G7 (antibody, V domains shown)
VH: EVQLVESGGGLIQPGGSLRLSCAASGFIVSSNYMTWVRQAPGKGLEWVSVLFSGGSTFYADSVKGRFTISRDNSKNTLYLQMNSLRAEDTAVYYCARENGGYYFDYWGQGTLVTVSS
VL: DIQLTQSPSFLSASVGDRVTITCRASQGISTYLAWYQQKPGKAPKLLIYAASTLQSGVPSRFSGSGSGTEFTLTISSLQPEDFATYYCQQLNNYPPDFGGGTKVEIK
Consider B5, for which the binding result in experiment [1] and in experiment [2] was “binds” each time.

B6: P186-2C12 (antibody, V domains shown)
VH: EVQLVESGGGVVRPGGSLRLSCAASGFTFDDYGMSWVRQAPGKGLEWVSGIYWNGGITGYADSLKGRFTISRDNAKNSLYLQMNSLRAEDTALYHCARDRGSGYYIFDYWGQGTLVTVSS
VL: not shown
Turning to B6, the binding result in experiment [1] and in experiment [2] was “binds” throughout.

B7: P5S-2G9 (antibody, V domains shown)
VH: QVTLRESGPALVKPTQTLTLTCTFSGFSLRTTGMCVSWIRQPPGKALEWLALIDWDGDKYYATSLETRLTISKDTSENQVVLTMTNMDPVDTATYYCVRTLRLRWLDFWGQGTLVTVSS
VL: DIQMTQSPSSLSASVGDRVTITCRASQSIGTSLNWYQQKPVKAPNLLIYGASSLQSGVPSRFSGSGSGTDFTLTISSLQPEDFATYYCQQGYTTPLTFGGGTKVEIK
Consider B7, for which the binding result in experiment [1] and in experiment [2] was “binds” each time.

B8: P186-2A8 (antibody, V domains shown)
VH: EVQLVESGGGLVQPGRSLRLSCAASGFTFDDYAMHWVRQAPGKGLEWVSGISWNSGSISYADSVKGRFTISRDNAKNSLYLQMNSLRAEDTALYYCAKALVGGHKYYYGMDVWGQGTTVTVSS
VL: not shown
Regarding B8, the binding result in experiment [1] and in experiment [2] was “binds” each time.

B9: P5S-1B11 (antibody, V domains shown)
VH: QVQLVQSGAEVKKPGASVKLSCRASGYTFTSYFMHWVRQAPGQGLEWMGVINPGGGGTSYAQKFQGRVTMTRDTSTSTVYMELSSLRSEDTAVYYCARYYDSIDNFDYWGQGTLVTVSS
VL: DIQMTQSPSSLSASVGDRVTITCRASQGIRNDLGWYQQKPGKAPKCLIYAASSLQSGVPSRFSGSRSGTEFTLTISSLQPEDFATYYCLQHNTYPQLTFGGGTKVEIK
Regarding B9, the binding result in experiment [1] and in experiment [2] was “binds” throughout.

B10: P195-1B8 (antibody, V domains shown)
VH: QVTLRESGPALVKPTQTLTLTCTFSGFSLSTSGMCVSWIRQPPGKALEWLALIDWDDDKYYSTSLKTRLTISKDTSKNQVVLTMTNMDPVDTATYYCARSWVGGGVDVWGQGTTVTVSS
VL: not shown
As for B10, the binding result in experiment [1] and in experiment [2] was “binds” throughout.

B11: P195-2A1 (antibody, V domains shown)
VH: EVQLVESGGGLVQPGGSLRLSCAASGFTVSSNYMSWVRQAPGKGLEWVSVIYSGGSTYYADSVKGRFTISRDNSKNTLYLQMNSLRAEDTAVYYCARGEGGDLPFDYWGQGTLVTVSS
VL: QSALTQPASVSGSPGQSITISCTGTSSDVGGYYYVSWFQQHPGEAPKLMIFDVSKRPSGVSNRFSGSKSGNTASLTISGLQAEDEADYYCSSYTSSSTSHVLFGGGTKLTVL
On to B11, for which the binding result in experiment [1] and in experiment [2] was “binds” each time.

B12: P2S-2A6 (antibody, V domains shown)
VH: EVQLVESGGGLVQPGRSLRLSCAASGMTFDDYDMHWVRQVPGKGLEWVSGISWNGGIIGYADSVKGRFTISRDNAKTSLYLQMNSLRAEDTALYYCAKVAGRGDYDYYYGMDVWGQGTTVTVSS
VL: QSVLTQPPSVSGAPGQRVTISCTGSSSNIGAGYDVHWYQQLPGTAPKLLIYGNNNRPSGVPDRFSGSKSGTSASLAITGLQAEDEADYYCQSYDSSLSGSVFGGGTKLTVL
With B12, the binding result in experiment [1] and in experiment [2] was “binds” in each case.

B13: P10S-1G4 (antibody, V domains shown)
VH: QVQLQESGPGLVKPSQTLSLTCTVSGDSISSGDYYWIWIRQHPGKGLEWIGYIYYSGSTYYNPSLKSRVTISVDTSKNQFSLKLSSVTAADTAVYYCARVEYCSGGSCRRHNWFDPWGQGTLVTVSS
VL: QSVLTQPPSVSGAPGQRVTISCTGSSSNIGAGYDVHWYQQLPGTAPKLLIYGNSNRPSGVPDRFSGSKSGTSASLAITGLQAEDEADYYCQSYDSSLSGVVFGGGTKLTVL
As for B13, the binding result in experiment [1] and in experiment [2] was “binds” throughout.

B14: P2S-1H6 (antibody, V domains shown)
VH: EVQLVESGGGLVQPGRSLRLSCAASGFTFDDYDMHWVRQAPGKGLEWVSGISWNGGIIGYADSVKGRFTISRDNAKTSLYLQMNSLKPEDTALYYCAKVAGRGDYDYYYGMDVWGQGTTVTVSS
VL: QSVLTQPPSVSGAPGQRVTISCTGSSSNIGAGYDVHWYQQLPGTAPKLLIYGNNNRPSGVPDRFSGSKSGTSASLAITGLQAEDEADYYCQSYDSSLSGSVFGGGTKLTVL
For B14, the binding result in experiment [1] and in experiment [2] was “binds” throughout.

B15: P2-2H8 (antibody, V domains shown)
VH: QVQLVQSGAEVKKPGSSVKVSCKASGGTFSSYAISWVRQAPGQGLEWMGRIISMLGIANYAQKFQGRVTITADKSTSTAYMELSSLRSEDTAIYFCARDPDIHYDSSGYSHYYGMDVWGQGTTVTVSS
VL: DIVMTQSPLSLPVTPGEPASISCRSSQSLLHGNGYNYLDWYLQRPGQSPQLLIYLGSNRASGVPGRFSGSGSGTDFTLKISRVEAEDVGVYYCMQALQTLITFGQGTQLEIK
Turning to B15, the binding result in experiment [1] and in experiment [2] was “binds” in each case.

B16: P2-1D5 (antibody, V domains shown)
VH: QVQLVESGGGVVQPGRSLRLSCAASGFTFSSSVMHWVRQAPGKGLEWVALIWYDGSNKYYADSVKGRFTISRDNSKNTLYLQMNSLRAEDTAVYYCARDREITMTTFDYWGQGTLVTVSS
VL: not shown
With B16, the binding result in experiment [1] and in experiment [2] was “binds” each time.

B17: P5-1A7 (antibody, V domains shown)
VH: EVQLVESGGDLIQPGGSLRLSCAASGFTVSSNYMSWVRQAPGKGLEWVAVIYSGGSTYYADSVKGRFTISRDNSKNTLYLQMNSLRAEDTAVYYCARDYGDFYFDYWGQGTLVTVSS
VL: not shown
B17: the binding result in experiment [1] and in experiment [2] was “binds” each time.

B18: P104-1G2 (antibody, V domains shown)
VH: QLQLQESGPGLVKPSETLSLTCTVSGGSISSSSYYWGWIRQPPGKGLEWIGSIYYGGSTYYNPSLKSRVTISVDTSKNQFSLKLSSVTAADTAVYYCARSLGIFDYWGQGTLVTVSS
VL: DIQMTQSPSSLSASVGDRVTITCRASQGISNSLAWYQQKPGKAPKLLLYGASTLESGVPSRFSGSGSATDYTLTISSLQPEDFATYYCQQYYSNPPYTFGQGTKLEIK
Regarding B18, the binding result in experiment [1] and in experiment [2] was “binds” throughout.

B19: P2-1G9 (antibody, V domains shown)
VH: EVQLVESGGGLVQPGGSLRLSCAASGFTFSTYWMSWVRQAPGKGLEWVANIKQDGSDKYYVDSVKGRFTISRDNAKNSLYLQMNSLRVEDTAVYYCARDLGILWFGELPNFDPWGQGTLVTVSS
VL: DIQMTQSPSSLSASVGDRVTITCRASQGISNSLAWYQQKPGKAPKLLLYAASTLESGVPSRFSGSGSGTDYTLTISSLQPEDFATYYCQQYYSPPPRTFGQGTKVEIK
Consider B19, for which the binding result in experiment [1] and in experiment [2] was “binds” throughout.

B20: P2S-2E8 (antibody, V domains shown)
VH: EVQLVESGGGLVQPGGSLRLSCAASGFTFSSYWMSWVRQAPGKGLEWVANIKQDGSEKYYVDSVKGRFTISRDNAKNSLYLQMNSLRAEDTAVYYCARDLGILWFGELPNFDPWGQGTLVTVSS
VL: DIQMTQSPSSLSASVGDRVTITCRASQGISNSLAWYQQKPGKAPKLLLYAASRLESGVPSRFSGSGSGTDYTLTISSLQPEDFATYYCQQYYSTPPRTFGQGTKVEIK
In the case of B20, the binding result in experiment [1] and in experiment [2] was “binds” each time.
